Results: patent US20200062863A1 (CSL BEHRING, published 2020)
Positions count from the first letter of the chain named.

Experiments:
Assay in all cases: Western blot of culture supernatant (non-reducing SDS-PAGE) probed with 3F7 mAb, anti-human IgG-FITC
G472S = target: T1, G472S
T1 construct: also called Mu-FXII G472S mutant with C-terminal 8xHis-tag; mutant k)
T1 single chain: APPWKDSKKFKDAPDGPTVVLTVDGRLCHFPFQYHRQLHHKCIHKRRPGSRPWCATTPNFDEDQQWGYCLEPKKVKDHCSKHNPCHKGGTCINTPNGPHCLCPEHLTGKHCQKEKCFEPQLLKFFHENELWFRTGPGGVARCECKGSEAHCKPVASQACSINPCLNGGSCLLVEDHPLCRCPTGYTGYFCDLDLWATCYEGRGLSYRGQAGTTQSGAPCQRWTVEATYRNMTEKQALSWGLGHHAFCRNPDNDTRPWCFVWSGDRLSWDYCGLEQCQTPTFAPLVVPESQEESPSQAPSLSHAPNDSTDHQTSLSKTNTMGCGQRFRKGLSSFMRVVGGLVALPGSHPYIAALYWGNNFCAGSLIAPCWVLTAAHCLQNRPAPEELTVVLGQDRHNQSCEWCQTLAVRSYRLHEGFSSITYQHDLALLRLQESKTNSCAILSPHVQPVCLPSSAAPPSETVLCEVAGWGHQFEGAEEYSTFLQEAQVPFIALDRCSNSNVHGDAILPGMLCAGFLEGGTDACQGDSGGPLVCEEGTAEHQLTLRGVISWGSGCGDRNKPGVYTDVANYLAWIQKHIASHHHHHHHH
Description: (§1) Proteins were then transferred electrophoretically onto nitrocellulose filters and blocked for 1 hour in 5% Milk powder in Tris-buffered saline with 0.05% Tween-20 (TTBS). Filters were then incubated for 1 hour with either 3F7 mAb or an anti-His mAb 3H3 (both at […] in TTBS with 5% Milk powder), washed thoroughly with TTBS, then incubated for a further hour with anti-human IgG-FITC or anti-mouse IgG-FITC, respectively (Millipore, USA; both at 0.25 mg/ml in TTBS with 5% Milk powder). Following further washing of membranes in TTBS, Ab-FITC bound proteins were visualized using a Typhoon variable mode analyzer (GE Healthcare, USA).

N376D = target: T2, N376D
T2 construct: also called Mu-FXII N376D mutant with C-terminal 8xHis-tag; mutant a)
T2 single chain: T1 single chain with N357D, S453G
Description: as §1

A385D = target: T3, A385D
T3 construct: also called Mu-FXII A385D mutant with C-terminal 8xHis-tag; mutant b)
T3 single chain: T1 single chain with A366D, S453G
Description: as §1

A589D = target: T4, A589D
T4 construct: also called Mu-FXII A589D mutant with C-terminal 8xHis-tag; mutant n)
T4 single chain: T1 single chain with S453G, A570D
Description: as §1

Measured: binding result

B1: monoclonal antibody 3F7 (fully human IgG4/lambda) (antibody, V domains shown)
VH: EVQLLESGGGLVQPGGSLRLSCAASGFTFSKYIMQWVRQAPGKGLEWVSGIRPSGGTTVYADSVKGRFTISRDNSKNTLYLQMNSLRAEDTAVYYCARALPRSGYLISPHYYYYALDVWGQGTTVTVSS
VL: QSELTQPPSASGTPGQRVTISCSGSSSNIGRNYVYWYQQVPGTAPKLLIYSNNQRPSGVPDRFSGSKSGTSASLVISGLRSEDEADYYCAAWDASLRGVFGGGTKLTVLG
notes: also called 3F7 mAb; MAb 3F7
binds: all assays above
